Results on 17 sequences are retold here after the DeepSol protein solubility set.

A short description of the data set: soluble on expression in E. coli; label from the status in PepcDB or PDB records.
For “MHTVAVSGPPETGFRSVVCARRWLANPYAPGRPTVRCMNVDDHAEELASDLGVDKAEVKENLQNLVEYSVPLEEAKRSLRRKYGDDDGAPSGGPTAVDIADVDTDSGNVTVTATVLTAGKRSIRYQGDDHVIGEGELADETGRISYTAWEEFGLEPGDTVTIGNASVREWEGSPELNFGESATVTSADGDIEMAAEVGGDRDLAALSAGDRGRNVEAVVTEVEERTIDGRDGETEILSGVLGDETARLPFTDWDPHGEIEAGASVRIEDVYVREFRGVPSVNVSEFSTVERLDHEVEVGGPTRMAIRDAVARGGAYDVELVGSVIDIRDGSGLIKRCPDCGRVVQTGQCRQHGAVEAEDDLRVKAVLDDGTDSVTAILDRELTADVYGGTLADAREQAREAMDHSVVADTIAEDVVGREFRVRGHLSVDEYGANLETIAFAERDDDPAARAAAFLAEVDALEHHHHHH”, the “soluble on expression in E. coli” value is “not soluble”. The same measure for “MSTTVGRPSNEIASCQVCHSTERTRLYFGITSCAACAAFFRRSDGIRYMCTATNSCTISHDMKFFCRACRYTSCIRAGMVMSRNALATARKAPNNIIPREPTPRSVPSLEEVDGFSKILNISNGDLLKYYVKEVESIMAQQRYGEQKNALQVKSVNDLMIVTAYQEGTSLESCFNCPGVDILYNEDVEVVHKYFKFSNTWIDSLLAPTSPLDPSCNERISEFIHLLKSTLGSTLAQLNLNIIEYAAFKSFCIWKLVYHKTSISMKIVAQEHYEGVTSALRKYYRKNIKMSELEMATRIGDITLQIITVSNLYNDMARMYHQTGLQL”: “not soluble”; for “MGSDKIHHHHHHMIIDAHTHVWPEKIAAKALAGRVPGMEAKFDGTVAGLKRSMDAAGIDHCVAFGIADHARHVERANEFISSQRSDWLTPFGTIHLDLSVEENMEILQRHGIKGVKLHPLFQRFRLDDRRLWALFDAFGSDIAVITHVGFGGQGSANENSTPQMIVDIARNFPKLRFMACHFGGFRRLDEAEKYVVGLPIVLETSWPPGLAEIPTERLRAIVHRHGPDRIIFGSDWPMVDPADEIEAIRRLELHPDDEAAILGGNLARILGMES”: “not soluble”. In the case of “MGSDKIHHHHHHMTPTIVFDGGYTLWSAGDDAPLAFMTDGLARRLGTPVFKAFVRHPHASFDRRFGVQTLPNLEHESKAGAAGRWFRGLNFTDPRGELAAVADTVAQADLLIMGAGNFITEVGMDVLRGHLPRFCTMALMAQMAGTPYMLFGLSANVLHNPWAVRAAGWLLRGAAAVTFRERMAVENLRACGVALPEHTLLPDAALGAPRAPQGRGDEILRQEQIPSRTAGLRLALAVRDLSWMGSHAAALYERHQTELINLWCARKDNDVLLVPQCCYHADSGITDDRVLGRTLRGRSRFSDKVHVIEGCYHYDDIESLYTQADCAVATRLHGSVFAARMGIPVVGLAYEDKVRGFFGQLQAEDQCLPWDAPATDILALLDSLMLRVQAVRDHMLHRIEQLQQQLAGYIDIAAALAAPAGDHTP”, the “soluble on expression in E. coli” value was “not soluble”. The same measure for “SNAIFMDYYENRKVMAEAQNIYEKSPMEEQSQDGEVRKQFKALQQINQEIVGWITMDDTQINYPIVQAKDNDYYLFRNYKGEDMRAGSIFMDYRNDVKSQNRNTILYGHRMKDGSMFGSLKKMLDEEFFMSHRKLYYDTLFEGYDLEVFSVYTTTTDFYYIETDFSSDTEYTSFLEKIQEKSLYKTDTTVTAGDQIVTLSTCDYALDPEAGRLVVHAKLVKRQ”: “soluble”. As to “MSLTRRNDAIAVVVTEPQNRLFVDPFFDRHLRGIRQELVRQGAQLVLLLIEEPDDYPRVGNFLGGGHVDGALLFSLRGDDPLPEMVDRMGLPAVFGGRPVLSPEDRGHRYTYVDADNRGGAREAVRHLVAQGRERIATITGPLNQAAAVDRLDGYRDVLPDSAPDLIVEGDFTLRGGVDAMAELLARCPDLDAVFAASDLMACGALRVLKEHGRRVPEDVAVIGFDDLPPLVETTEPSLTTVHQDIEGMGRLMARLLFERIPATPLDDGDHSLHRVITPTRLILRKTAEGHHHHHH”, the “soluble on expression in E. coli” value is “not soluble”.

On to “MGSDKIHHHHHHMNREVFITCAVTGSGGSQDRSPHVPRSPKQIADSAIDAAKAGAAIVHCHVRDPETGKPRRDVHLYREVTERIRDANVDVVLNLTAGMGGDMVFGSPEAPLPLNEKGTDMGGATNRMEHVRQCLPEICTLDCGTMNFAEADYVMTNTPGMLRAMGGMMTALGVKPEIEAFDTGHLWFAKQLVEEKVLNPDALVQLCMGVPWGAPDDLNTFMAMVNNVPSTWNWSAFAIGRNQMAYAAAAVLAGGNVRVGLEDNLWLDKGVLATNAQLVERAASIVTNLGARILGPEEVRKKLNLTKRAPIAAAA”, for which the “soluble on expression in E. coli” value is listed as “not soluble”. Turning to “MELGKQRPVVYVVSDSVGETAELVVKAAASQFSGAGIEVRRIPYVEDKETVDEVIQLAKQADAIIAFTLVVPGIRTYLLEKATEAKVETVDIIGPMLEKISSLTKEEPRYEPGIVYRLDEDYFRKVEAIEFAVKYDDGRDPRGIVRADLVLIGVSRTSKTPLSQYLAHKRLKVANVPLVPEVEPPEELFKLSPKKVIGLKISPEQLNGIRAERLKTLGLKSQANYANIDRIKEELAYAEGIMKRIGCPVIDVSNKAVEETANLISSMFQKMAGDPLEHHHHHH”, the “soluble on expression in E. coli” value is “soluble”. Regarding “MGSDKIHHHHHHMAKSKSTYSCTECGGQTLKWQGQCPHCQAWNTLVEAMSEKAAARFTPVSESREVQSLSEVEAEEEQRYSTGLLEFDRVLGGGLVQGGVVLLGGDPGIGKSTLLLQALCNMSLLPLARNVLYVSGEESARQVAMRAKRMGVDAKALHLLAEIRLERIQEVLAERKPDVAVIDSIQTVYSDALQSAPGSVAQVRECAAQLTRLAKASGTGMILVGHVTKEGALAGPRVLEHMVDTVLYFEGDTHSSFRLIRAFKNRFGAVNELGVFAMTEKGLREVSNPSALFLSHHGGQVPGSCIMVTQEGTRPLLVEIQALVDEAHSPNARRLSVGLEQNRLAMLLAVLHRHAGIACFDQDVFVNAVGGVKITEPGADLAVLLAIVSSLKNRPLPEKTVVFGEVGLAGEVRPVQRGLERLREAAKLGFVQAIVPKANKPKATPPGIEIIAVERVEEAVARMR”, the “soluble on expression in E. coli” value is recorded as “not soluble”. As for “MSLDIEEARTTGIIDDKEAESRSESLEKAYLKTPLDPWKGEICTVSLSAAAHESRVVPISHKVGQVFEPSMDRDEARKLVLDLLDEYLFKNEKVLKIAVNLSFETKYAAKYGKYILGKVADPLIMWVRCLQIAAPQKINNPKKPTSGWGLKPATKHIFGVTMNDFSALLKKYKVNFFDEIDASKGEGLLYSAEDSDYAVQHYEYWSQIAAQISRYEEWLHKIEMPFTRVIGLMEYWGMNWDPNLATQKKQEAEIMQEQAAERIKQIAKETFNIDINTGKSGKTNEVKSLMFDYLKIPIAKYGKTGASLDQEALIDMAFMLENKLNDIDEEKYLGVSLPENWENIDPEKDPTLDKLERGAIRIAKREPHPYKEQALEVIDQLKKIQKYTTLLSSHIIGREKYLNFMSGRIHAGYSPFTETGRLNSFNPNGQNVPRPDNDEFKIRNFFVPKPGKILFFIDFSGFELRLMAWKSGDEVMTELFNTGGDMHRRTASVMTGKSEAEIVKKERTDAKAGNFGISYGGTEHALQFTFKTKYMIRKTLDECAQIVNAVKTAYKRIPEYQRKIVLEAREQGYVQTIYGYMRLLPGINSANRRDRGSAERQAANTPVQGSAADIMKKVQNEIYESIGKQEGVLSHGSADMIAQIHDEIIFEIDDDPEIVVAVEKQIKQVMEQPPVPGFPVPIEAEGSVGYRWGEKMSVESWLKQREGHHHHHH”, the entry is “soluble”. Turning to “MGGVSDERLDLVNERDEVVGQILRTDPALRWERVRVVNAFLRNSQGQLWIPRRSPSKSLFPNALDVSVGGAVQSGETYEEAFRREAREELNVEIDALSWRPLASFSPFQTTLSSFMCVYELRSDATPIFNPNDISGGEWLTPEHLLARIAAGEAAKGDLAELVRRCYREEE”, the “soluble on expression in E. coli” value is given as “soluble”.

As to “GPGSMQISPPFCGCLSEMYARSLVKQGAFSCFRSCVRVGSVAIIGGEAHMFKQLYKRDEKLRLYRSLIKGASRFPLRSRRDIVTEEVRSSFRHPLNDSLTNEEVDRKLVLGWERAEAIKTYAQNMYWFHSRDEVSKEMMHHSLERDRQRVREMERCNTVGAAPRKTPEVTEFKSSMYNVHPDYYEKIGQKPLTHTRDIWRARGQYGSDVGGPRQKFFVRRFKALFPQGW”, the “soluble on expression in E. coli” value is listed as “not soluble”. As for “MSLKDLVVGMELGYPPFEMSDKTGKASGISVDFLEAFAKKNGYKLVVKNIAWDGLIPALKTAKIDLIMSSMTITDKRKKVVDFSIPYAKANLAILTPLNSDITNIKDLDKKGKVLALKRGSTGHLYAVKNLKNATINLFDKENAAILEVIQGKADGFFYDQLTIYRTWQKHQDTTRAILAPFQENPEFWGIAVRKGDEALKDKLDNFIDESRKNGFLDFLGNKYLKDIKEGHHHHHH”, the entry is “soluble”.

Consider “MRGSVPSVREIETLLSQLPWRQFQSPRVHLEQYTTPVHLAARIAHHVALCIDEDERRSVQAVDLGTGTGILALALCLAGLNHVLGVDVDSEALELARANAAALWELCPQSVGAVLEFAAVDVQPNSLALAPKSFDVAVLNPPFGTRQRSADIAFLDVACHLSRRFVYSLHKSSTRSYLSRRLERFGCTAQVYARLRFDLPATYVFHRERAVDIDVDLWQIEVKR”, for which the “soluble on expression in E. coli” value is listed as “not soluble”. The same measure for “MTVPEEAQTLIGKHYRAPDHFLVGREKIREFAVAVKDDHPTHYSEPDAAAAGYPALVAPLTFLAIAGRRVQLEIFTKFNIPINIARVFHRDQKFRFHRPILANDKLYFDTYLDSVIESHGTVLAEIRSEVTDAEGKPVVTSVVTMLGEAAHHEADADATVAAIASILEHHHHHH”: “soluble”; for “SYHTGTAYGMIDLPRILRSITTFESFGKVKIGILKKGIQAIESLLVARHQMYSAVYMHPTVRIADTMIKRAVIKEIQEKNLDIKDLANMDDIALVSFLRISENYLMERIDRRNLYKNLITYSYFDLNPIEKWIFVNLDEKQILSLESRFYEEFGWDIFIDIYPIPKMEEHNVYIISDEGVKRLDEVSPLAQSLK”: “not soluble”.

Take “MSLNKNIKSLNLREKDPFLSREKQRYEHPLPSREWIIELLERKGVPSKIESLARELSITEDEYVFFERRLKAMARDGQVLINRRGAVCAADKLDLVKCRVEAHKDGFGFAVPLTPAKDGDFVLYERQMRGIMHGDIVTVRPAGMDRRGRREGTVLDIVERAQSKVVGRFYMDRGVAILEPEDKRLNQSIVLEPDGVARFKPESGQVIVGEIEVYPEQNRPAVAKIIEVLGDYADSGMEIEIAVRKHHLPHQFSEACAKAAKKIPVHVRKSDLKGRVDLRDLPLVTIDGETARDFDDAVFAEKVGRNYRLVVAIADVSHYVRPDDVIDADAQERSTSVYFPRRVIPMLPENLSNGICSLNPDVERLCMVCDMVVTYAGNIKEYRFYPAVMRSHARLTYNQVWKWISDGIDHPYKAQIDTLYKLFKILQKKRFERGAVEFESVETQMIFDDNGKIEKIVPVVRNDAHKLIEECMLAANVCAADFLLKNKHTALFRNHLGPTPEKLATLREQLGLLGLQLGGGDNPSPKDYAALVEQFKGRPDAELLQVMMLRSMQQAVYEPHCDGHFGLAYEAYAHFTSPIRRYPDLTVHRAIKAVLNQQTYTPKKSWQALGVHTSFCERRADDASRDVENWLKTYYMRDKVGEVFEGKISGMTSFGIFVTLDGIHIDGLVHISDLGEDYFNFRPEIMAIEGERSGIRFNMGDRVAVRVARADLDDGKIDFVLIAGGSGRGRKVKSSASAKPAGTAGKGKPKTAAEKKTARGGKVRGRGASAAAESRKKAKKPVPIKVKKRKGKSEGHHHHHH”: the “soluble on expression in E. coli” value is on record as “not soluble”.
